Measurements reported in paper PMC3376134, “Regulation of the Escherichia coli HipBA Toxin-Antitoxin System by Proteolysis” (PLoS ONE, 2012).

B3: HipB antitoxin, wild type (natural protein, E. coli, UniProt P23873 1-88, looked up)
chain: MMSFQKIYSPTQLANAMKLVRQQNGWTQSELAKKIGIKQATISNFENNPDNTTLTTFFKILQSLELSMTLCDAKNASPESTEQQNLEW
notes: HipB, antitoxin and repressor of the hipBA operon of Escherichia coli, 88 residues; also called HipB WT; pET15b-HipB; source: E. coli BL21(DE3)pLysS, purified (Ni-NTA)
B5: HipA toxin (wild type HipA protein) (enzyme, E. coli, UniProt P23874 1-440, looked up)
chain: MPKLVTWMNNQRVGELTKLANGAHTFKYAPEWLASRYARPLSLSLPLQRGNITSDAVFNFFDNLLPDSPIVRDRIVKRYHAKSRQPFDLLSEIGRDSVGAVTLIPEDETVTHPIMAWEKLTEARLEEVLTAYKADIPLGMIREENDFRISVAGAQEKTALLRIGNDWCIPKGITPTTHIIKLPIGEIRQPNATLDLSQSVDNEYYCLLLAKELGLNVPDAEIIKAGNVRALAVERFDRRWNAERTVLLRLPQEDMCQTFGLPSSVKYESDGGPGIARIMAFLMGSSEALKDRYDFMKFQVFQWLIGATDGHAKNFSVFIQAGGSYRLTPFYDIISAFPVLGGTGIHISDLKLAMGLNASKGKKTAIDKIYPRHFLATAKVLRFPEVQMHEILSDFARMIPAALDNVKTSLPTDFPENVVTAVESNVLRLHGRLSREYGSK

Columns and labels:
[1] = biological target: B5; test: fluorescence polarisation; HipA titrated into 50 nM HipB (or HipB(W88A), HipB72) pre-incubated 2 min with 1 nM 5'-6-carboxyfluorescein-labelled hipBA O1O2 DNA; 20 mM Tris-HCl pH 7.5, 100 mM NaCl, 5% glycerol; 10 °C; the affinity is formally between HipA and HipB bound to the DNA; details: both partners purified
HipB72 = biological target: T1, HipB72 (Escherichia coli, UniProt P23873 1-72, del73-88); test: fluorescence polarization; 1 nM DNA; 20 mM Tris-HCl pH 7.5, 100 mM NaCl, 5% glycerol, 10 C, 1 nM labeled DNA; details: protein: recombinant; tags: His6 (Ni-NTA purified); chain copies: 2; label: 5'-6-carboxyfluorescein on top strand; blunt
T1 sequence: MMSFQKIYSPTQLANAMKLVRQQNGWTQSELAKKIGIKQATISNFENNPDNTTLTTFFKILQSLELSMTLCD

HipB = biological target: T2, HipB (Escherichia coli, UniProt P23873 1-88); test: as above; details: protein: recombinant; tags: His6 (Ni-NTA purified, pET15b); chain copies: 2; label: 5'-6-carboxyfluorescein on top strand; blunt
T2 sequence: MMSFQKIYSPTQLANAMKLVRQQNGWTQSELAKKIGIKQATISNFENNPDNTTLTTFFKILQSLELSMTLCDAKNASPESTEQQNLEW

HipB(W88A) = biological target: T3, HipB(W88A) (Escherichia coli, UniProt P23873 1-88, W88A); test: as above; details: protein: recombinant; tags: His6 (Ni-NTA purified); chain copies: 2; label: 5'-6-carboxyfluorescein on top strand; blunt
T3 sequence: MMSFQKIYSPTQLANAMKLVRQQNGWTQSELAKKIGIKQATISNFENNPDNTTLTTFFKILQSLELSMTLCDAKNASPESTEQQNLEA

HipA;HipB = biological target: T4, HipA;HipB (Escherichia coli;Escherichia coli, UniProt P23874;P23873 1-440;1-88, |); test: fluorescence polarization; HipA titrated into DNA saturated with 50 nM HipB; Kd is formally HipA for DNA-bound HipB; 20 mM Tris-HCl pH 7.5, 100 mM NaCl, 5% glycerol, 10 C, 1 nM labeled DNA; details: protein: recombinant;recombinant; tags: His6 (Ni-NTA purified, pET28a);His6 (Ni-NTA purified, pET15b); chain copies: 2;4; label: 5'-6-carboxyfluorescein on top strand; blunt
T4 sequence 1: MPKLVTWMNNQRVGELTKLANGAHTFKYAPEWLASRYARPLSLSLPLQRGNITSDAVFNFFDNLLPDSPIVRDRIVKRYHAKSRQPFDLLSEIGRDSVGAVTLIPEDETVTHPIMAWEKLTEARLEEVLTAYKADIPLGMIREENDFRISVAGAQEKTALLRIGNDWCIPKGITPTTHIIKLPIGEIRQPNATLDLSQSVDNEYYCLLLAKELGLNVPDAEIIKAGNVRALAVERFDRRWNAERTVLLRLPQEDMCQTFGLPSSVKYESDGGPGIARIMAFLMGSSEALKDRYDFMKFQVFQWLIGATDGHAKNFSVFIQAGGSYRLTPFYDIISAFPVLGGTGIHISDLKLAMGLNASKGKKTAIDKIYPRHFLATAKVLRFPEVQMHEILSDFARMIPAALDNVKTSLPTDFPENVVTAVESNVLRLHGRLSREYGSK
T4 sequence 2: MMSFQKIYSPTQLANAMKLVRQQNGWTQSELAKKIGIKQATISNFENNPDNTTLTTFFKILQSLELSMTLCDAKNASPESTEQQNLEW

[2] = biological target: B5; test: fluorescence polarisation; HipA titrated into 50 nM HipB (or HipB(W88A), HipB72) pre-incubated 2 min with 1 nM 5'-6-carboxyfluorescein-labelled hipBA O1O2 DNA; 20 mM Tris-HCl pH 7.5, 100 mM NaCl, 5% glycerol; 10 °C; the affinity is formally between HipA and HipB bound to the DNA; details: both partners purified; remark: listed apart in the source
[3] = biological target: B3; test: cell-based or functional assay

B1: HipB72 (C-terminal truncation of HipB lacking the last 16 residues) (domain or fragment, E. coli, UniProt P23873 1-72, looked up)
chain: MMSFQKIYSPTQLANAMKLVRQQNGWTQSELAKKIGIKQATISNFENNPDNTTLTTFFKILQSLELSMTLCD
notes: Strain KLE912; also called HipB72 C-terminal truncation protein; pET15b-hipB72; source: E. coli BL21(DE3)pLysS, purified (Ni-NTA)
B1: binds [1].

B2: hipBA O1O2 operator (dsDNA)
DNA 1: TTATCCGCTTAAGGGGATATTATAAGTTTTATCCTTTAGTGAGGATAA
DNA 2: TTATCCTCACTAAAGGATAAAACTTATAATATCCCCTTAAGCGGATAA
Binder B2 has a Kd (HipB72) of 0.4 ± 0.1 nM, a Kd (HipB) of 0.6 ± 0.1 nM and a Kd (HipB(W88A)) of 0.9 ± 0.4 nM. It also gave a Kd (HipA;HipB) of 1000 ± 600 nM.

B3 gave a Kd [2] of 1000 ± 600 nM.

B4: HipB(W88A) (natural protein, E. coli, UniProt P23873 1-88, looked up)
chain: MMSFQKIYSPTQLANAMKLVRQQNGWTQSELAKKIGIKQATISNFENNPDNTTLTTFFKILQSLELSMTLCDAKNASPESTEQQNLEA
notes: HipB of Escherichia coli with the C-terminal tryptophan 88 changed to alanine, made by site-directed mutagenesis in pET15b-hipB; Strain KLE911; also called HipB(W88A) protein; pET15b-hipB w88a; source: E. coli BL21(DE3)pLysS, purified (Ni-NTA)
Binder B4 has a Kd [2] of 1200 ± 300 nM.

In the case of B5, the “half-life of His6-HipB (0.48 µM) in the in vitro degradation assay with His6-Lon (0.6 µM) when purified His6-HipA (0.48 µM) is added, against lysozyme as control protein” value [3] is reported as greater than 3.33 h.
